# Reference: patent US20260234222A1 (LEYDEN LABORATORIES B V, published 2026)
# Read-outs that look alike come from different tables or passages of the source.
# B1: Bispecific 1 (bispecific antibody)
# heavy 1: not shown
# light 1: EIVLTQSPGTLSLSPGERATLSCRASQSVRRNYFAWYQQKRGQAPRLLIYDASTRATGIPDRFSGSGSGTDFTLTISRLEPEDFAVYYCQQYDSSPPMYIFGQGTKLEIKSSASTKGPSVFPLAPSSKSTSGGTAALGCLVKDYFPEPVTVSWNSGALTSGVHTFPAVLQSSGLYSLSSVVTVPSSSLGTQTYICNVNHKPSNTKVDKKVEPKSC
# heavy 2: not shown
# light 2: QSALTQPPSASGSPGQSVTISCSGTSSDVGGYNFVSWYQHHPGKAPKILIYEVTKRPSGVPDRFSGSKSGNTASLTVSGLQAEDEADYYCSSYGGTNNLLFGGGTKLTVLGQPKAAPSVTLFPPSSEELQANKATLVCLISDFYPGAVTVAWKADSSPVKAGVETTTPSKQSNNKYAASSYLSLTPEQWKSHRSYSCQVTHEGSTVEKTVAPTECS
# B2: Parental mAb 2 (antibody, V domains shown)
# VH: QMQLMQSGAEVKKPGASVTVSCKASGDTFSDYRIHWVRQAPGQGLEWMGRMNPKSGDTNFAQKFQGRVTMTRDMSINTAYMTLSGLTFDDTALYYCASLLIVGGFDPLDDFEVWGQGTMVTISS
# VL: QSALTQPPSASGSPGQSVTISCSGTSSDVGGYNFVSWYQHHPGKAPKILIYEVTKRPSGVPDRFSGSKSGNTASLTVSGLQAEDEADYYCSSYGGTNNLLFGGGTKLTVL
# B3: Parental mAb 1 (antibody, V domains shown)
# VH: QEQLVQSGAEVKKPGASVKVSCKSSGFTFSYFYLHWVRQAPGQGLEWMGIINPRGDGTRYAQKFQGRVTMTRDASTGTLYMELRSLRSEDTAVYYCARGADHGAFDIWGQGTMVTVSS
# VL: EIVLTQSPGTLSLSPGERATLSCRASQSVRRNYFAWYQQKRGQAPRLLIYDASTRATGIPDRFSGSGSGTDFTLTISRLEPEDFAVYYCQQYDSSPPMYIFGQGTKLEIK
# notes: also called antibody according to the invention; first parental antibody
# Key:
# Experiment in all cases: cell-based or functional assay
# [1] = biological target: SARS-CoV-2 Omicron XBB.1.1 spike (SARS-CoV-2 Omicron XBB.1.1)
# [2] = biological target: SARS-CoV-2 Delta Spike antigen (SARS-CoV-2 Delta)
# [3] = biological target: T1, SARS-CoV-2 Omicron BA.4/5 spike (SARS-CoV-2 Omicron BA.4/5)
# [4] = biological target: SARS-CoV-2 Delta Spike antigen (SARS-CoV-2 Delta); remark: listed apart in the source
# [5] = biological target: T1, SARS-CoV-2 Omicron BA.4/5 spike; remark: listed apart in the source
# [6] = biological target: T1, SARS-CoV-2 Omicron BA.4/5 spike; remark: listed apart in the source
binder,measurement,setting,value
B1,Pseudovirion neutralization IC50,[1],11.9 µg/mL
same,Pseudovirion neutralization IC50,[2],0.307 µg/mL
same,Pseudovirion neutralization IC50,[3],5.14 µg/mL
same,Live virus neutralization IC50,[4],14.2 µg/mL
same,Live virus neutralization IC50,[5],4.85 µg/mL
B2,Pseudovirion neutralization IC50,[1],20.6 µg/mL
same,Pseudovirion neutralization IC50,[2],0.488 µg/mL
same,Pseudovirion neutralization IC50,[3],7.56 µg/mL
same,Live virus neutralization IC50,[4],16.1 µg/mL
same,Live virus neutralization IC50,[5],4.62 µg/mL
B3,Pseudovirion neutralization IC50,[1],4.85 µg/mL
same,Pseudovirion neutralization IC50,[3],4.13 µg/mL
same,Pseudovirion neutralization IC50,[6],4.13 µg/mL
same,Live virus neutralization IC50,[5],2.92 µg/mL
